Columns and labels:
Test in all cases: IAANS fluorescence titration
[1] = molecular target: cardiac troponin C (M45Q TnC IAANS T53C) (Homo sapiens, UniProt P63316)
[2] = molecular target: cardiac troponin C (TnC IAANS T53C) (Homo sapiens, UniProt P63316)
[3] = molecular target: cardiac troponin C (F20Q TnC IAANS T53C) (Homo sapiens, UniProt P63316)
[4] = molecular target: cardiac troponin C (L48Q TnC IAANS T53C) (Homo sapiens, UniProt P63316)
[5] = molecular target: cardiac troponin C (V44Q TnC IAANS T53C) (Homo sapiens, UniProt P63316)

Kd [1]: 289 nM
Kd [2]: 200 nM
Kd [3]: 318 nM
Kd [4]: 268 nM
Kd [5]: 262 nM
B1: cardiac troponin I peptide TnI128-180 128-180 (protein)
chain: LTQKIFDLRGKFKRPTLRRVRISADAMMQALLGARAKESLDLRAHLKQVKKED
